# Experiments:
# p53WT (Homo sapiens) = p53WT (Homo sapiens) (UniProt P04637); assay: FCS; settings: poly(ADP-ribose), 50 mM Tris pH 7.4, 150 mM NaCl, 3 mM DTT, 0.05% Tween20, 1 h room temperature, 10 nM nucleic acid
# [1] = tested on: histone H1 (Homo sapiens); assay: FCS; settings: poly(ADP-ribose), 50 mM Tris pH 7.4, 150 mM NaCl, 3 mM DTT, 0.05% Tween20, 1 h room temperature, 10 nM nucleic acid
# Sequence of p53WT (Homo sapiens) (P04637 whole entry): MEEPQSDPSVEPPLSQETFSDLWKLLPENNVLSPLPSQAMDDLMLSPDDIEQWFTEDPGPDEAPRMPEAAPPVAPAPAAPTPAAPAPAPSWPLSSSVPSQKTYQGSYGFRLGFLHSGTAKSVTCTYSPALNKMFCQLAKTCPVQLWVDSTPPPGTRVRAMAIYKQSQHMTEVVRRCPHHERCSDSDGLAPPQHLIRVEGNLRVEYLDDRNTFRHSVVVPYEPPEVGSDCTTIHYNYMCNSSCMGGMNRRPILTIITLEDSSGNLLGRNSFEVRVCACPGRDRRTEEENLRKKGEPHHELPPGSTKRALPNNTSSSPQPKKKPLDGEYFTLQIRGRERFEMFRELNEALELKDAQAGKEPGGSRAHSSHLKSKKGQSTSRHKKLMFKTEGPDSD
substance,measurement,setting,value
PARWT 30-mer,Kd,p53WT (Homo sapiens); linear,0.028 µM
PARHB 40-mer,Kd,p53WT (Homo sapiens); hyperbranched,0.041 µM
PARHB 20-mer,Kd,[1]; hyperbranched,0.008 µM
PARWT 40-mer,Kd,p53WT (Homo sapiens); linear,0.007 µM
PARHB 30-mer,Kd,p53WT (Homo sapiens); hyperbranched,0.099 µM
PARHB 50-mer,Kd,p53WT (Homo sapiens); hyperbranched,0.03 µM
PARWT 50-mer,Kd,"p53WT (Homo sapiens); first binding event, no saturation up to 5 uM, linear",0.008 µM
PARWT 20-mer,Kd,"[1]; also printed as 4 nM in the comparison with PARHB, linear",0.005 µM
